Assay results taken from paper PMC12016715.

Target: SARS-CoV-2 spike (S)-trimer protein (SARS-CoV-2) (UniProt P0DTC2)
Assay: SEC

“SARS-CoV-2 spike (S)-trimer protein (from UniProt P0DTC2 16-1209) (domain or fragment)” showed a stoichiometry N of 3.
